In paper PMC3635982:

What was measured:
[1] = target: human epidermal growth factor receptor, endogenous in HEp-2 cells (human (endogenous in HEp-2)) (UniProt P00533)
[2] = target: human epidermal growth factor receptor, endogenous in HEp-2 cells (human (endogenous in HEp-2)) (UniProt P00533); remark: listed apart in the source

## Pmp21 on the surface of C. pneumoniae elementary bodies (from UniProt Q9Z6U5 31-1609) (natural protein)
[1]
  infectivity of C. pneumoniae for HEp-2 cells pretreated 2 h with cetuximab: 54 % reduction
[2]
  infectivity of C. pneumoniae for cells preincubated 2 h with EGF: 47 % reduction
